# Data published in article PMC11480844 (2024).
# B1: H2-Kb / Ed31 (parent complex)
# chain 1: GQQVQQSPASLVLQEGENAELQCNFSTSLNSMQWFYQRPGGSLVSLFYNPSGTKHSGRLTSTTVIKERRSSLHISSSQTTDSGTYLCALEGNYAQGLTFGLGTRVSVFP
# chain 2: ETAVFQTPNYHVTQVGNEVSFNCKQTLGHDTMYWYKQDSKKLLKIMFSYNNKQLIVNETVPRRFSPQSSDKAHLNLRIKSVEPEDSAVYLCASRSAGEQYFGPGTRLTVL
# chain 3: not shown
# chain 4: IQKTPQIQVYSRHPPENGKPNILNCYVTQFHPPHIEIQMLKNGKKIPKVEMSDMSFSKDWSFYILAHTEFTPTETDTYACRVKHDSMAEPKTVYWDRDM
# chain 5: SIINFEKL
# B2: H2-Kb / Ed16-30 (parent complex)
# chain 1: GEQVEQRPPHLSVREGDSAVIICTYTDPNSYYFFWYKQEPGAGLQLLMKVFSSTEINEGQGFTVLLNKKDKQLSLNLTAAHPGDSAVYFCAVSEPSSGQKLVFGQGTILKVYL
# chain 2: EAAVTQSPRNKVAVTGGKVTLSCNQTNNHNNMYWYRQDTGHGLRLIHYSYGAGSTEKGDIPDGYKASRPSQENFSLILELATPSQTSVYFCAGRDTGQLYFGEGSKLTVL
# chain 3: not shown
# chain 4: B1 chain 4
# chain 5: SIINFEKL
# Variants of: B1
# Experiment: % of reporter cells activated (NFAT-GFP), raw
# Note: test concentration or dose not given here.
row,Variant,ratio to parent
1,chain 5 L8H,0.802
2,chain 5 L8I,0.968
3,chain 5 L8W,0.766
4,chain 5 L8Y,0.922
5,chain 5 L8K,0.854
6,chain 5 L8D,0.549
7,chain 5 L8A,0.898
8,chain 5 L8F,0.891
9,chain 5 L8N,0.69
10,chain 5 L8Q,0.876
11,chain 5 L8S,0.762
12,chain 5 L8G,0.711
13,chain 5 L8R,0.791
14,chain 5 L8T,0.862
15,chain 5 L8M,0.945
16,chain 5 S1D,0.504
17,chain 5 S1V,0.551
18,chain 5 S1A,0.803
19,chain 5 S1H,1.04
20,chain 5 S1I,0.676
21,chain 5 S1E,0.561
22,chain 5 S1F,0.459
23,chain 5 S1L,0.46
24,chain 5 S1T,0.99
25,chain 5 S1K,0.757
26,chain 5 S1G,1.04

row,Variant,ratio to parent
1,chain 5 S1Y,0.934
2,chain 5 S1C,0.44
3,chain 5 S1R,0.532
4,chain 5 S1P,0.658
5,chain 5 K7A,0.41
6,chain 5 K7I,0.176
7,chain 5 K7V,0.247
8,chain 5 K7Q,0.146
9,chain 5 K7R,0.698
10,chain 5 K7N,0.185
11,chain 5 K7F,0.0347
12,chain 5 K7W,0.542
13,chain 5 K7E,0.0194
14,chain 5 K7T,0.102
15,chain 5 K7L,0.141
16,chain 5 K7P,0.298
17,chain 5 K7G,0.186
18,chain 5 K7Y,0.167
19,chain 5 K7H,0.323
20,chain 5 K7C,0.747
21,chain 5 K7S,0.614
22,chain 5 K7D,0.167
23,chain 5 E6C,0.00242
24,chain 5 E6L,0.0037
25,chain 5 E6V,0.00379
26,chain 5 E6Q,0.111

row,Variant,ratio to parent
1,chain 5 E6G,0.435
2,chain 5 E6Y,0.0864
3,chain 5 E6P,0.0101
4,chain 5 E6N,0.0136
5,chain 5 E6I,0.000832
6,chain 5 E6T,0.00208
7,chain 5 E6S,0.00329
8,chain 5 E6H,0.174
9,chain 5 E6F,0.0115
10,chain 5 E6D,0.458
11,chain 5 E6K,0.777
12,chain 5 E6W,0.00233
13,chain 5 F5C,0.68
14,chain 5 F5S,0.753
15,chain 5 F5K,0.509
16,chain 5 F5N,0.525
17,chain 5 F5E,0.407
18,chain 5 F5P,0.261
19,chain 5 F5T,0.956
20,chain 5 F5Q,0.49
21,chain 5 F5I,0.496
22,chain 5 F5R,0.635
23,chain 5 F5D,0.536
24,chain 5 F5Y,1.11
25,chain 5 F5A,0.866
26,chain 5 I2A,1.18

row,Variant,ratio to parent
1,chain 5 I2P,0.972
2,chain 5 I2G,1.11
3,chain 5 I2K,0.818
4,chain 5 I2L,1.12
5,chain 5 I2N,0.832
6,chain 5 I2D,0.962
7,chain 5 I2F,0.795
8,chain 5 I2S,1.12
9,chain 5 I2V,1.07
10,chain 5 I2Y,0.658
11,chain 5 I2E,1.11
12,chain 5 I2M,1.07
13,chain 5 I2T,1.09
14,chain 5 I2H,0.832
15,chain 5 I3G,0.309
16,chain 5 I3Q,0.272
17,chain 5 I3H,0.183
18,chain 5 I3A,0.523
19,chain 5 I3C,0.555
20,chain 5 I3L,1.02
21,chain 5 I3S,0.38
22,chain 5 I3P,0.894
23,chain 5 I3T,0.548
24,chain 5 I3E,0.499
25,chain 5 I3N,0.225
26,chain 5 I3F,0.0484

row,Variant,ratio to parent
1,chain 5 I3R,0.0501
2,chain 5 I3Y,0.0382
3,chain 5 I3K,0.735
4,chain 5 I3M,0.563
5,chain 5 N4A,0.0503
6,chain 5 N4C,0.031
7,chain 5 N4D,0.00288
8,chain 5 N4H,0.0784
9,chain 5 N4E,0.0188
10,chain 5 N4V,0.132
11,chain 5 N4G,0.083
12,chain 5 N4S,0.00781
13,chain 5 N4Y,0.242
14,chain 5 N4P,0.0223
15,chain 5 N4L,0.198
16,chain 5 N4K,0.0359
17,chain 5 N4Q,0.583
18,chain 5 N4T,0.156
19,chain 5 N4R,0.0703
20,chain 5 N4W,0.42
21,chain 5 N4M,0.207
22,chain 5 N4I,0.484

# Variants of: B2
# Experiment: % of reporter cells activated (NFAT-GFP), raw
row,Variant,ratio to parent
1,chain 5 I2R,0.968
2,chain 5 I2W,0.866
3,chain 5 I2F,1.08
4,chain 5 I2C,1.12
5,chain 5 N4Y,0.0322
6,chain 5 L8V,1
7,chain 5 L8W,0.929
8,chain 5 L8D,0.715
9,chain 5 L8E,0.823
10,chain 5 F5W,1.03
11,chain 5 F5S,1.19
12,chain 5 F5A,1.21
13,chain 5 F5D,0.85
14,chain 5 F5T,1.23
15,chain 5 K7F,0.106
16,chain 5 K7Q,0.297
17,chain 5 K7N,0.305
18,chain 5 K7R,1.17
19,chain 5 K7M,0.57
20,chain 5 S1I,0.323
21,chain 5 E6W,0.422
22,chain 5 E6V,0.0227
23,chain 5 I3L,1.03
24,chain 5 I3E,0.45
